Source: PMC9780360, “A conformation-specific nanobody targeting the nicotinamide mononucleotide-activated state of SARM1” (Nature Communications, 2022)

What was measured:
[1] = biological target: T1, dtSARM1, the truncated form of SARM1 without the N-terminal mitochondrial signal, fused with a twin-Strep-tag … (human, UniProt Q6SZW1 28-724); assay: SPR; 100 uM NMN, two-state fit kd1
T1 chain: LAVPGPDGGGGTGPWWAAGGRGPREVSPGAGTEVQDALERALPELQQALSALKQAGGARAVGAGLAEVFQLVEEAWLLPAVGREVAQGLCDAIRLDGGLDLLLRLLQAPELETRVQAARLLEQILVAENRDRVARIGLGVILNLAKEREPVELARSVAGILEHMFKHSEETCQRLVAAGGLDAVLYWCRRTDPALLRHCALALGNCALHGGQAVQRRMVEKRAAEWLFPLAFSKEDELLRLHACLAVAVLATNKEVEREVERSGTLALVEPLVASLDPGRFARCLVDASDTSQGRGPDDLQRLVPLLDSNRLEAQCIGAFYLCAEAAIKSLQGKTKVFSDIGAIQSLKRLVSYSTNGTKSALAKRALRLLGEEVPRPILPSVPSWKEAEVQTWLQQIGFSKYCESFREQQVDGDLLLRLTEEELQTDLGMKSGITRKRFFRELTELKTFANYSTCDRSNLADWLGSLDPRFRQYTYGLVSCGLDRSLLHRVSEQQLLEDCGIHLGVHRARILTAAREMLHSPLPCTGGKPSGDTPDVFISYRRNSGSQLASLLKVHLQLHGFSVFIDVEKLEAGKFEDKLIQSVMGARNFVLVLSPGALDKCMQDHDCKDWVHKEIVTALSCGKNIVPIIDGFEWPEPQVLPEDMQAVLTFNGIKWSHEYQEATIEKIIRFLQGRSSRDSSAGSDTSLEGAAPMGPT

[2] = biological target: T1, dtSARM1, the truncated form of SARM1 …; assay: SPR; 100 uM NMN, two-state fit kd2
Nanobody C6 (alpaca) = assay: cryo-EM structure; 3 mg/mL dtSARM1 with 100 uM NMN in 100 mM Tris pH 8.0, 150 mM NaCl, 1 mM EDTA on ice for 10 min, then Nb-C6 at 1:1 molar ratio, 30 min on ice
[3] = biological target: T2, dtSARM1, the truncated form of SARM1 without the N-terminal mitochondrial signal, fused with a twin-Strep-tag … (human, UniProt Q6SZW1); assay: as above; conditions: both partners purified
T2 construct: also called recombinant SARM1; SARM1^NMN (loaded with NMN); source: Expi293F stably expressing dtSARM1 (lentiviral); in lysate, or purified (StrepTactin resin, Superdex 200 gel filtration); not shown: twin-Strep, N-terminal, kept; Flag, N-terminal, kept

[4] = biological target: T2, dtSARM1, the truncated form of SARM1 …; assay: SPR; BIAcore 8K; dtSARM1 captured (about 500 RU) on a CM5 chip coated with Strep-Tactin XT; Nb-C6 1.56-400 nM in NMN/HBS-EP (100 uM NMN, 10 mM HEPES, 150 mM NaCl, 1 mg/mL BSA, 3 mM EDTA, 0.05% P20); 360 s association, 540 s dissociation; two-state kinetics model; conditions: both partners purified
[5] = biological target: the molecule itself; assay: cryo-EM structure; 3 mg/mL dtSARM1 with 100 uM NMN in 100 mM Tris pH 8.0, 150 mM NaCl, 1 mM EDTA on ice for 10 min, then Nb-C6 at 1:1 molar ratio, 30 min on ice

B1: Nanobody C6 (VHH)
VHH: AVQLVESGGGLVQPGGSLRLSCAASVSISRIYVMAWYRQAPGKQREVVAVIRYDGTTNYPDSVKGRFTISRDNAKNTVYLQMNSLKPEDTAVYYCNANVETWGQGTQVTVSS
notes: Subcloned into pET22b; alpaca nanobody from an immune phage display library; also called Nb-C6; source: E. coli C43(DE3), purified (Ni-Excel resin, HiTrap Q)
koff [1]: 0.0209 s⁻¹
koff [2]: 0.000601 s⁻¹
stoichiometry N (Nanobody C6 (alpaca)): 2
stoichiometry N [3]: 1
Kd [4]: ~25 nM

B2: dtSARM1, the truncated form of SARM1 without the N-terminal mitochondrial signal, fused with a twin-Strep-tag and a Flag-tag attached to the N-terminus (enzyme, human, UniProt Q6SZW1 28-724, looked up)
chain: T1 chain
notes: also called recombinant SARM1; SARM1^NMN (loaded with NMN); source: Expi293F stably expressing dtSARM1 (lentiviral); in lysate, or purified (StrepTactin resin, Superdex 200 gel filtration); not shown: twin-Strep, N-terminal, kept; Flag, N-terminal, kept
stoichiometry N [5]: 8
